Test results: US20250313611A1 (VIB VZW, published 2025)
Where a chain is given by its changes, count along the chain named.

B1: VHH R4_DC6 (VHH)
VHH: QVQLQESGGGLVQAGDSLRLSCAASGRILSTFTMGWFRQAPGKEREFVAAMRWNGGTKNYADSVKGRFTISRDNANSVVYLQMNSTKPEDTAVYYCAAAYVSKANYGSLWYRTPSLYDYWGQGTQVTVSS
B2: VHH R3_C4 (VHH)
VHH: QVQLQESGGGLVQAGDSLRLSCAVSGRPFSTYTMGWFRQAPGKEREFVAAMRWSGGTIYYADSVKGRFTISRDNDKNTVNLEMNSLKPEDTAVYYCAAAYVSKANYGSLWYRASGLYDYWGQGTQVTVSS
B3: VHH R4_DC16 (VHH)
VHH: B2 VHH with D75A, K76Q, E82Q, L109S, A113N
B4: VHH R3_DC2 (VHH)
VHH: B2 VHH with A14T, A50S, I58K, A61S, T69S, K76Q, E82Q, A113N
B5: VHH R3_DC9 (VHH)
VHH: B2 VHH with A14T, A50S, I58M, A61S, E82Q, A113N
B6: VHH R4_DC9 (VHH)
VHH: QVQLQESGGGLVQAGDSLRLSCAASGRIFSTYTMGWFRQAPGMEREFVAAIRWSGSTVYYADSVKGRFTISRDNAKNTVYLQMNSLKPEDTAVYYCAAARVSKANYGTLWYRASGLYDYWGQGTQVTVSS
B7: VHH R4_DC20 (VHH)
VHH: B2 VHH with A14T, A50S, I58M, Y59N, K76Q, E82Q, A113N
B8: VHH R3_DC20 (VHH)
VHH: B2 VHH with D75A, K76Q, E82Q, K87E, A113N
B9: VHH R4_DC13 (VHH)
VHH: B2 VHH with A14T, A50S, I58V, A61S, E82Q, S85N, L109F, A113N, G115D
B10: VHH R3_DC23 (VHH)
VHH: QVQLQESGGGLVQAGDSLTLSCAVSGRIFSTYTMGWFRQAPGKEREFVAAVRWGAGTIYYADSMKGRFTISRDSAKNTVDLQMNSTKPEDTAVYYCGAAYVSKANYGSLWYQDSRRYDYWGQGTQVTVSS

Columns and labels:
[1] = target: T1, BSA (bovine, UniProt P02769); assay: ELISA, coated BSA, dilution series, OD450 [3/3]
T1 construct: coated control antigen
T1 sequence (P02769 25-607 limits assumed): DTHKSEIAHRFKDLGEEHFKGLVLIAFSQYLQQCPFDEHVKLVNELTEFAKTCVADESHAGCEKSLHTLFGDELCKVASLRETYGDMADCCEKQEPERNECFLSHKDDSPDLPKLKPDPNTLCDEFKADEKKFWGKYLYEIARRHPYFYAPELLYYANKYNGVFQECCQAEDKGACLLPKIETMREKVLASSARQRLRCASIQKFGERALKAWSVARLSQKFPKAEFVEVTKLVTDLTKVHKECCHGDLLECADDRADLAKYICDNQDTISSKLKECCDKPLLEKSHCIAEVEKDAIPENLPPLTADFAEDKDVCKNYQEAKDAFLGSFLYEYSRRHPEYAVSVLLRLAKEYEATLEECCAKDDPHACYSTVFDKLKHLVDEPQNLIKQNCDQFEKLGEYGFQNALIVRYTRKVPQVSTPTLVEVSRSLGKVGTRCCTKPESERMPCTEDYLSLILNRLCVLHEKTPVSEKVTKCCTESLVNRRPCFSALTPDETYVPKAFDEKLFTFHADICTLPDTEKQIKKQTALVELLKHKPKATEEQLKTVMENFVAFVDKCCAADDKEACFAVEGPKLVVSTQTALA

[2] = target: T2, SARS-COV-2 RBD (His-tagged, Sinobiologicals) (SARS-CoV-2 (Wuhan), UniProt P0DTC2 319-541); assay: ELISA, coated antigen, dilution series, OD450 [3/3]
[3] = target: T3, MERS-COV spike expressed on transfected cells (MERS-CoV, UniProt K9N5Q8 18-1353); assay: flow cytometry, transfected HEK cells, MFI GFP+/GFP- cells [2/3]
T3 sequence: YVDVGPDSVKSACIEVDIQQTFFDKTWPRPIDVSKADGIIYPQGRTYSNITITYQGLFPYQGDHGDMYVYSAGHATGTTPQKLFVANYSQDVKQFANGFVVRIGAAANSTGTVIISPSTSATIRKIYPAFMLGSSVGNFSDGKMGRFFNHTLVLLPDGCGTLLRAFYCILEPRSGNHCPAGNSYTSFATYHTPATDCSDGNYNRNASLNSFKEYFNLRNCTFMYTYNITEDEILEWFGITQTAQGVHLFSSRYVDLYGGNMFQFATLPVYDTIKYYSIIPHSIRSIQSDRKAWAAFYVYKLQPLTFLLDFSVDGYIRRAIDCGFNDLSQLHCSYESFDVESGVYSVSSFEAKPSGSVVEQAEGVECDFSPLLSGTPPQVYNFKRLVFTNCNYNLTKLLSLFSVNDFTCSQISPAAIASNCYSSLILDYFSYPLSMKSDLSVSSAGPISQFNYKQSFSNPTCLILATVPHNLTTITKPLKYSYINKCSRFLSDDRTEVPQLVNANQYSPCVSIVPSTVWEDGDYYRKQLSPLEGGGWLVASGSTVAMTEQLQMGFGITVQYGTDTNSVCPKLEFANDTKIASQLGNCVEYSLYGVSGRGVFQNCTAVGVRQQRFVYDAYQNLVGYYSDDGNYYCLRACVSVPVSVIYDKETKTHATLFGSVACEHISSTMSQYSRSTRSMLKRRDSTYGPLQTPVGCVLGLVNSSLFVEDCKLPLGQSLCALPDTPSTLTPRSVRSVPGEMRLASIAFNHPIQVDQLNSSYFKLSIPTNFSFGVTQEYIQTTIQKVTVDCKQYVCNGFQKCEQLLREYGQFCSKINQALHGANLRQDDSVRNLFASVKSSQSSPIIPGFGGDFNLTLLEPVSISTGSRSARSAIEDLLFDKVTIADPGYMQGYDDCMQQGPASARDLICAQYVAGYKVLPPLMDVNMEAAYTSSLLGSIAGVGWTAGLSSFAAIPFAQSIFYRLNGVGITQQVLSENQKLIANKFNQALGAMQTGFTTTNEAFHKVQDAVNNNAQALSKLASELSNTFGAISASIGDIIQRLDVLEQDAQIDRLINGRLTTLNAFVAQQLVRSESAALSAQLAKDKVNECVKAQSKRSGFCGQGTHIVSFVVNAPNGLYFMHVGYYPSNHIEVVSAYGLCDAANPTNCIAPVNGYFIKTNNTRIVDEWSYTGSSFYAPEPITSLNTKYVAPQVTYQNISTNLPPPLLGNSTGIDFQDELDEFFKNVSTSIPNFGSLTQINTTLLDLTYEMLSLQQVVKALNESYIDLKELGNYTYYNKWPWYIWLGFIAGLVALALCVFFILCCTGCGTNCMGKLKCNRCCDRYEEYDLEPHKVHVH

[4] = target: T1, BSA; assay: ELISA, coated BSA, dilution series, OD450 [2/3]
[5] = target: T2, SARS-COV-2 RBD (His-tagged, …); assay: ELISA, periplasmic extract 1/10, OD450 antigen/OD450 BSA [B]
[6] = target: T3, MERS-COV spike expressed on transfected …; assay: flow cytometry, transfected HEK cells, MFI GFP+/GFP- cells [1/3]
[7] = target: T3, MERS-COV spike expressed on transfected …; assay: flow cytometry, transfected HEK cells, MFI GFP+/GFP- cells [3/3]
[8] = target: T2, SARS-COV-2 RBD (His-tagged, …); assay: ELISA, periplasmic extract 1/10, OD450 antigen/OD450 BSA [D00002 FIG. 1 cont. D]
[9] = target: T2, SARS-COV-2 RBD (His-tagged, …); assay: ELISA, periplasmic extract 1/10, OD450 antigen/OD450 BSA
[10] = target: T2, SARS-COV-2 RBD (His-tagged, …); assay: ELISA, coated antigen, dilution series, OD450 [1/3]
[11] = target: T2, SARS-COV-2 RBD (His-tagged, …); assay: ELISA, periplasmic extract 1/10, OD450 antigen/OD450 BSA [D00002 FIG. 1 cont. D]; remark: listed apart in the source

Binder | binding result [3] | binding result [4] | binding result [6] | binding result [9] | also measured
B1 | no binding (tested: not given) |  |  |  | binding result [1]: no binding (tested: 10 µg/ml); binding result [2]: no binding (tested: 10 µg/ml)
B2 |  | no binding (tested: 10 µg/ml) | no binding (tested: not given) |  | binding result [5]: no binding (tested: extract 1/10, concentration not given)
B3 |  | no binding (tested: 10 µg/ml) |  |  | binding result [7]: no binding (tested: not given); binding result [8]: no binding (tested: extract 1/10, concentration not given)
B4 |  | no binding (tested: 10 µg/ml) | no binding (tested: not given) | no binding (tested: extract 1/10, concentration not given) | 
B5 |  |  | no binding (tested: not given) | no binding (tested: extract 1/10, concentration not given) | 
B6 | no binding (tested: not given) |  |  |  | binding result [1]: no binding (tested: 10 µg/ml); binding result [2]: no binding (tested: 10 µg/ml)
B7 |  |  |  |  | binding result [10]: no binding (tested: 10 µg/ml); binding result [7]: no binding (tested: not given)
B8 |  |  | no binding (tested: not given) | no binding (tested: extract 1/10, concentration not given) | 
B9 | no binding (tested: not given) | no binding (tested: 10 µg/ml) |  |  | binding result [11]: no binding (tested: extract 1/10, concentration not given)
B10 | no binding (tested: not given) |  |  |  | binding result [10]: no binding (tested: 10 µg/ml)
